Molecular target: human μ receptor (human) (UniProt P35372)
Sequence of UniProt P35372 (P35372 whole entry): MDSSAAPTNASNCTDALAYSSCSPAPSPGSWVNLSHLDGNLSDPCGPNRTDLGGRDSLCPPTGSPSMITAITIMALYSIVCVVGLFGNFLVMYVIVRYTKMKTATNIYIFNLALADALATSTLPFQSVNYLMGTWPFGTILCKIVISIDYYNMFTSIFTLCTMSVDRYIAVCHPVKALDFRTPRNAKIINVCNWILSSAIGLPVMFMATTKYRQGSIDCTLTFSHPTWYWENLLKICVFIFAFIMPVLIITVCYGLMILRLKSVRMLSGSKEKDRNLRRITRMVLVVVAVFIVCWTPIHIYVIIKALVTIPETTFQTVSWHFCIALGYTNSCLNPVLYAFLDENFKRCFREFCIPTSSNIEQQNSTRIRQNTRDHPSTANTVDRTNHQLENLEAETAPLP

EC50 of the FRET signal increase (cAMP decrease) of the Epac sensor H187 in single HEK293 cells co-expressing μR, increasing concentrations of DAMGO, no forskolin pre-treatment: 0.091 nM
Substance: DAMGO (peptide)
